Test results from paper doi:10.1101/2023.08.22.554218 (bioRxiv, 2023).

Target: T1, Recombinant human PDZD8 (1,28-) - FLAG (human, UniProt Q8NEN9 1-1154, (1, 28-))
T1 sequence (looked up): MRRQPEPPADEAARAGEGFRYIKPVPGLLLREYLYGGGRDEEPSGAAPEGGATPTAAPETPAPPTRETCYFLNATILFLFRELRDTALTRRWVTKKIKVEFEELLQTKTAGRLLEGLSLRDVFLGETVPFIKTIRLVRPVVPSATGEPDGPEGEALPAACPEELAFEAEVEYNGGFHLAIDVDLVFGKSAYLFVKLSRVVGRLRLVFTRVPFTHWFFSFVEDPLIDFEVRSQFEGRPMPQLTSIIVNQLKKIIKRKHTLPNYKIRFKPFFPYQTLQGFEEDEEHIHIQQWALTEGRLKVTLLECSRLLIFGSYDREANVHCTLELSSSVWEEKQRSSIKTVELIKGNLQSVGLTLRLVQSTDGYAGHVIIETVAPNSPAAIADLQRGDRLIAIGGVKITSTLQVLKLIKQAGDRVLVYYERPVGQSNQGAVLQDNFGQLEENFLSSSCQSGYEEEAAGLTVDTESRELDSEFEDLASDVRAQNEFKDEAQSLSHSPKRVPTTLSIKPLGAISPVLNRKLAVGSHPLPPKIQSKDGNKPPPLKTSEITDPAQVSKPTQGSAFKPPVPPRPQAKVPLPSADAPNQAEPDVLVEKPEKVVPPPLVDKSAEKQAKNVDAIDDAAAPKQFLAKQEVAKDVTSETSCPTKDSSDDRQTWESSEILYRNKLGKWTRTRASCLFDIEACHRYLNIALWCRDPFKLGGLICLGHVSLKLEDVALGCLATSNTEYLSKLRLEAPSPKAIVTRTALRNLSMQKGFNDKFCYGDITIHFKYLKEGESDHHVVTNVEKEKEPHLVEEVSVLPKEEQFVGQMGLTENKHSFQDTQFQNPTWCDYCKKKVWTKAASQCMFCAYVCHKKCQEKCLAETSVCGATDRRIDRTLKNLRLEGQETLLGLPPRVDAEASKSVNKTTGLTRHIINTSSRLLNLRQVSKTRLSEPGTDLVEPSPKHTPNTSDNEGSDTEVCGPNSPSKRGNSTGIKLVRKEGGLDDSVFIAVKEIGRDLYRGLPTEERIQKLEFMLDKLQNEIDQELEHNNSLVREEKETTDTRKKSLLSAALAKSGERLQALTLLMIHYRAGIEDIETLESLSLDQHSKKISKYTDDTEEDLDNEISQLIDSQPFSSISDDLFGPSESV
Assay: SPR

B1: Recombinant human FKBP8 (1-380) - Histag (domain or fragment, UniProt Q14318 1-380, looked up)
chain: MASCAEPSEPSAPLPAGVPPLEDFEVLDGVEDAEGEEEEEEEEEEEDDLSELPPLEDMGQPPAEEAEQPGALAREFLAAMEPEPAPAPAPEEWLDILGNGLLRKKTLVPGPPGSSRPVKGQVVTVHLQTSLENGTRVQEEPELVFTLGDCDVIQALDLSVPLMDVGETAMVTADSKYCYGPQGRSPYIPPHAALCLEVTLKTAVDGPDLEMLTGQERVALANRKRECGNAHYQRADFVLAANSYDLAIKAITSSAKVDMTFEEEAQLLQLKVKCLNNLAASQLKLDHYRAALRSCSLVLEHQPDNIKALFRKGKVLAQQGEYSEAIPILRAALKLEPSNKTIHAELSKLVKKHAAQRSTETALYRKMLGNPSRLPAKCPG
- Kd: 142 µM
